Measured values reported in patent US20050277575.

Molecular target: T1, Glu-plasminogen (Calbiochem), P00747
T1 chain: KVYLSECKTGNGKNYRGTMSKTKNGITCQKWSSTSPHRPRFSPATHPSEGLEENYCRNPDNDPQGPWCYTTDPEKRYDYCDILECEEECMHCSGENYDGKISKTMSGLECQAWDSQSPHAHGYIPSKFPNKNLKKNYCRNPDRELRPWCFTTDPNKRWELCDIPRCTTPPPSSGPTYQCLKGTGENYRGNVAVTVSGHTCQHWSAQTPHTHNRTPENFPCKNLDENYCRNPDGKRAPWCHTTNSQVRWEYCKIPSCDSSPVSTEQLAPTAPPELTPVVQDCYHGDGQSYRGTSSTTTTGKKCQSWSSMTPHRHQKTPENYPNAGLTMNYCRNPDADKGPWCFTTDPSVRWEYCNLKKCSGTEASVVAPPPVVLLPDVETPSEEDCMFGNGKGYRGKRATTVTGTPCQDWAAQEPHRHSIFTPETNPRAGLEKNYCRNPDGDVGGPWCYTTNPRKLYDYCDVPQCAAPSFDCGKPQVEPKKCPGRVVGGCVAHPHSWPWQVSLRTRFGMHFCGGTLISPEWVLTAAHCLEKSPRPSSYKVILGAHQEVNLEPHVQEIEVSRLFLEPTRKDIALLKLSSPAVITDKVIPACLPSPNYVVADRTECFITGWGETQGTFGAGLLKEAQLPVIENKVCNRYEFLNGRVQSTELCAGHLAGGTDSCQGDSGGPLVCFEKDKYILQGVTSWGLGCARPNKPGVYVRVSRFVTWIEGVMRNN

B1: tissue type plasminogen activator (t-PA, Calbiochem) (protein)
chain: SYQVICRDEKTQMIYQQHQSWLRPVLRSNRVEYCWCNSGRAQCHSVPVKSCSEPRCFNGGTCQQALYFSDFVCQCPEGFAGKCCEIDTRATCYEDQGISYRGTWSTAESGAECTNWNSSALAQKPYSGRRPDAIRLGLGNHNYCRNPDRDSKPWCYVFKAGKYSSEFCSTPACSEGNSDCYFGNGSAYRGTHSLTESGASCLPWNSMILIGKVYTAQNPSAQALGLGKHNYCRNPDGDAKPWCHVLKNRRLTWEYCDVPSCSTCGLRQYSQPQFRIKGGLFADIASHPWQAAIFAKHRRSPGERFLCGGILISSCWILSAAHCFQERFPPHHLTVILGRTYRVVPGEEEQKFEVEKYIVHKEFDDDTYDNDIALLQLKSDSSRCAQESSVVRTVCLPPADLQLPDWTECELSGYGKHEALSPFYSERLKEAHVRLYPSSRCTSQHLLNRTVTDNMLCAGDTRSGGPQANLHDACQGDSGGPLVCLNDGRMTLVGIISWGLGCGQKDVPGVYTKVTNYLDWIRDNMRP
  Km of t-PA-mediated plasminogen conversion in the presence of S100A4 (EGTA): 0.059 µM
  Km of t-PA-mediated plasminogen conversion, basal reaction (EGTA): 0.429 µM
